First the molecules themselves.
B1: Anti-PD1(VH7-VL6) IgG4-TGFβRII (antibody)
heavy: QVQLVQSGVEVKKPGASVKVSCKASGYTFTNYYMYWVRQAPGQGLEWMGGINPSNGGTNFNEKFKNRVTLTTDSSTTTAYMELKSLQFDDTAVYYCARRDYRFDMGFDYWGQGTTVTVSSASTKGPSVFPLAPCSRSTSESTAALGCLVKDYFPEPVTVSWNSGALTSGVHTFPAVLQSSGLYSLSSVVTVPSSSLGTKTYTCNVDHKPSNTKVDKRVESKYGPPCPSCPAPEFLGGPSVFLFPPKPKDTLMISRTPEVTCVVVDVSQEDPEVQFNWYVDGVEVHNAKTKPREEQFNSTYRVVSVLTVLHQDWLNGKEYKCKVSNKGLPSSIEKTISKAKGQPREPQVYTLPPSQEEMTKNQVSLTCLVKGFYPSDIAVEWESNGQPENNYKTTPPVLDSDGSFFLYSRLTVDKSRWQEGNVFSCSVMHEALHNHYTQKSLSLSPGKGGGGSGGGGSIPPHVQKSVNNDMIVTDNNGAVKFPQLCKFCDVRFSTCDNQKSCMSNCSITSICEKPQEVCVAVWRKNDENITLETVCHDPKLPYHDFILEDAASPKCIMKEKKKPGETFFMCSCSSDECNDNIIFSEEYNTSNPD
light: EIVLTQSPATLSLSPGERATLSCRASKGVSTSGYSYLHWYQQKPGQAPRLLIYLASYLESGVPARFSGSGSGTDFTLTISSLEPEDFAVYYCQHSRDLPLTFGGGTKVEIKRTVAAPSVFIFPPSDEQLKSGTASVVCLLNNFYPREAKVQWKVDNALQSGNSQESVTEQDSKDSTYSLSSTLTLSKADYEKHKVYACEVTHQGLSSPVTKSFNRGEC
B2: Anti-PD1 (VL6-VH7).IgG4(S108P).TGFbRII (antibody)
heavy: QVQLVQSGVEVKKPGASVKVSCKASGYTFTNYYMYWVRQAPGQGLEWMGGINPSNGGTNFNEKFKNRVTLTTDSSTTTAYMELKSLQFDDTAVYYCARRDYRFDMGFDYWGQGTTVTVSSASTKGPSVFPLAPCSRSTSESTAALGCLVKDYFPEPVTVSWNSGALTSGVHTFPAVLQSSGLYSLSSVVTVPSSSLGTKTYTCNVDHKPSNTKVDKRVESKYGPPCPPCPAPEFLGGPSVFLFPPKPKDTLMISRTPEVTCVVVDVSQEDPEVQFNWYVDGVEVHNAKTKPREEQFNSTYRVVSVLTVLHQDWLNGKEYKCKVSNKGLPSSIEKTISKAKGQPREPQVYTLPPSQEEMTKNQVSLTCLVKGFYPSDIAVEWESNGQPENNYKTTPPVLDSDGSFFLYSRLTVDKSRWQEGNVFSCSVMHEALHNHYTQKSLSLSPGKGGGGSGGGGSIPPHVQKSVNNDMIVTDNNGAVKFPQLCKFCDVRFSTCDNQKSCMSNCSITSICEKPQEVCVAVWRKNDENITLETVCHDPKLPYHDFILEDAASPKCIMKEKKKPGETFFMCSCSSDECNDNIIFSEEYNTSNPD
light: EIVLTQSPATLSLSPGERATLSCRASKGVSTSGYSYLHWYQQKPGQAPRLLIYLASYLESGVPARFSGSGSGTDFTLTISSLEPEDFAVYYCQHSRDLPLTFGGGTKVEIKRTVAAPSVFIFPPSDEQLKSGTASVVCLLNNFYPREAKVQWKVDNALQSGNSQESVTEQDSKDSTYSLSSTLTLSKADYEKHKVYACEVTHQGLSSPVTKSFNRGEC
B3: Anti-PD1 (VL5-VH6).IgG4 (antibody, V domains shown)
VH: QVQLVESGGGVVQPGRSLRLDCKASGITFSNSGMHWVRQAPGKGLEWVAVIWYDGSKRYYADSVKGRFTISRDNSKNTLFLQMNSLRAEDTAVYYCATNDDYWGQGTLVTVSS
VL: EIVLTQSPATLSLSPGERATLSCRASQSVSSYLAWYQQKPGQAPRLLIYDASNRATGIPARFSGSGSGTDFTLTISSLEPEDFAVYYCQQSSNWPRTFGQGTKVEIK
B4: Anti-PD1 (VL5-VH6).IgG4-Linker 2-TGFbRII (antibody)
heavy: QVQLVESGGGVVQPGRSLRLDCKASGITFSNSGMHWVRQAPGKGLEWVAVIWYDGSKRYYADSVKGRFTISRDNSKNTLFLQMNSLRAEDTAVYYCATNDDYWGQGTLVTVSSASTKGPSVFPLAPCSRSTSESTAALGCLVKDYFPEPVTVSWNSGALTSGVHTFPAVLQSSGLYSLSSVVTVPSSSLGTKTYTCNVDHKPSNTKVDKRVESKYGPPCPSCPAPEFLGGPSVFLFPPKPKDTLMISRTPEVTCVVVDVSQEDPEVQFNWYVDGVEVHNAKTKPREEQFNSTYRVVSVLTVLHQDWLNGKEYKCKVSNKGLPSSIEKTISKAKGQPREPQVYTLPPSQEEMTKNQVSLTCLVKGFYPSDIAVEWESNGQPENNYKTTPPVLDSDGSFFLYSRLTVDKSRWQEGNVFSCSVMHEALHNHYTQKSLSLSPGKGGGGSGGGSIPPHVQKSVNNDMIVTDNNGAVKFPQLCKFCDVRFSTCDNQKSCMSNCSITSICEKPQEVCVAVWRKNDENITLETVCHDPKLPYHDFILEDAASPKCIMKEKKKPGETFFMCSCSSDECNDNIIFSEEYNTSNPD
light: not shown
B5: Anti-PD1 (VH7-VL6) IgG4-ADA2 (antibody)
heavy (part 1 of 2): QVQLVQSGVEVKKPGASVKVSCKASGYTFTNYYMYWVRQAPGQGLEWMGGINPSNGGTNFNEKFKNRVTLTTDSSTTTAYMELKSLQFDDTAVYYCARRDYRFDMGFDYWGQGTTVTVSS
heavy (part 2 of 2): GGGGSGGGGSSIDETRAHLLLKEKMMRLGGRLVLNTKEELANERLMTLKIAEMKEAMRTLIFPPSMHFFQAKHLIERSQVFNILRMMPKGAALHLHDIGIVTMDWLVRNVTYRPHCHICFTPRGIMQFRFAHPTPRPSEKCSKWILLEDYRKRVQNVTEFDDSLLRNFTLVTQHPEVIYTNQNVVWSKFETIFFTISGLIHYAPVFRDYVFRSMQEFYEDNVLYMEIRARLLPVYELSGEHHDEEWSVKTYQEVAQKFVETHPEFIGIKIIYSDHRSKDVAVIAESIRMAMGLRIKFPTVVAGFDLVGHEDTGHSLHDYKEALMIPAKDGVKLPYFFHAGETDWQGTSIDRNILDALMLNTTRIGHGFALSKHPAVRTYSWKKDIPIEVCPISNQVLKLVSDLRNHPVATLMATGHPMVISSDDPAMFGAKGLSYDFYEVFMGIGGMKADLRTLKQLAMNSIKYSTLLESEKNTFMEIWKKRWDKFIADVATK
light: EIVLTQSPATLSLSPGERATLSCRASKGVSTSGYSYLHWYQQKPGQAPRLLIYLASYLESGVPARFSGSGSGTDFTLTISSLEPEDFAVYYCQHSRDLPLTFGGGTKVEIKRTVAAPSVFIFPPSDEQLKSGTASVVCLLNNFYPREAKVQWKVDNALQSGNSQESVTEQDSKDSTYSLSSTLTLSKADYEKHKVYACEVTHQGLSSPVTKSFNRGEC
notes: not shown: IgG4 heavy chain constant region
B6: Anti-PD1 (VH6-VL5) scFv-ADA2 (scFv)
chain 1: QVQLVESGGGVVQPGRSLRLDCKASGITFSNSGMHWVRQAPGKGLEWVAVIWYDGSKRYYADSVKGRFTISRDNSKNTLFLQMNSLRAEDTAVYYCATNDDYWGQGTLVTVSS
chain 2: EIVLTQSPATLSLSPGERATLSCRASQSVSSYLAWYQQKPGQAPRLLIYDASNRATGIPARFSGSGSGTDFTLTISSLEPEDFAVYYCQQSSNWPRTFGQGTKVEIK
chain 3: GGGGSGGGGSSIDETRAHLLLKEKMMRLGGRLVLNTKEELANERLMTLKIAEMKEAMRTLIFPPSMHFFQAKHLIERSQVFNILRMMPKGAALHLHDIGIVTMDWLVRNVTYRPHCHICFTPRGIMQFRFAHPTPRPSEKCSKWILLEDYRKRVQNVTEFDDSLLRNFTLVTQHPEVIYTNQNVVWSKFETIFFTISGLIHYAPVFRDYVFRSMQEFYEDNVLYMEIRARLLPVYELSGEHHDEEWSVKTYQEVAQKFVETHPEFIGIKIIYSDHRSKDVAVIAESIRMAMGLRIKFPTVVAGFDLVGHEDTGHSLHDYKEALMIPAKDGVKLPYFFHAGETDWQGTSIDRNILDALMLNTTRIGHGFALSKHPAVRTYSWKKDIPIEVCPISNQVLKLVSDLRNHPVATLMATGHPMVISSDDPAMFGAKGLSYDFYEVFMGIGGMKADLRTLKQLAMNSIKYSTLLESEKNTFMEIWKKRWDKFIADVATK
B7: Anti-PD1 (VH6-VL5) IgG4-ADA2 (antibody)
heavy (part 1 of 2): QVQLVESGGGVVQPGRSLRLDCKASGITFSNSGMHWVRQAPGKGLEWVAVIWYDGSKRYYADSVKGRFTISRDNSKNTLFLQMNSLRAEDTAVYYCATNDDYWGQGTLVTVSS
heavy (part 2 of 2): GGGGSGGGGSSIDETRAHLLLKEKMMRLGGRLVLNTKEELANERLMTLKIAEMKEAMRTLIFPPSMHFFQAKHLIERSQVFNILRMMPKGAALHLHDIGIVTMDWLVRNVTYRPHCHICFTPRGIMQFRFAHPTPRPSEKCSKWILLEDYRKRVQNVTEFDDSLLRNFTLVTQHPEVIYTNQNVVWSKFETIFFTISGLIHYAPVFRDYVFRSMQEFYEDNVLYMEIRARLLPVYELSGEHHDEEWSVKTYQEVAQKFVETHPEFIGIKIIYSDHRSKDVAVIAESIRMAMGLRIKFPTVVAGFDLVGHEDTGHSLHDYKEALMIPAKDGVKLPYFFHAGETDWQGTSIDRNILDALMLNTTRIGHGFALSKHPAVRTYSWKKDIPIEVCPISNQVLKLVSDLRNHPVATLMATGHPMVISSDDPAMFGAKGLSYDFYEVFMGIGGMKADLRTLKQLAMNSIKYSTLLESEKNTFMEIWKKRWDKFIADVATK
light: not shown
notes: as for B5
B8: Anti-PD1 (VH7-VL6) IgG1-ADA2 (antibody)
heavy (part 1 of 2): QVQLVQSGVEVKKPGASVKVSCKASGYTFTNYYMYWVRQAPGQGLEWMGGINPSNGGTNFNEKFKNRVTLTTDSSTTTAYMELKSLQFDDTAVYYCARRDYRFDMGFDYWGQGTTVTVSS
heavy (part 2 of 2): GGGGSGGGGSSIDETRAHLLLKEKMMRLGGRLVLNTKEELANERLMTLKIAEMKEAMRTLIFPPSMHFFQAKHLIERSQVFNILRMMPKGAALHLHDIGIVTMDWLVRNVTYRPHCHICFTPRGIMQFRFAHPTPRPSEKCSKWILLEDYRKRVQNVTEFDDSLLRNFTLVTQHPEVIYTNQNVVWSKFETIFFTISGLIHYAPVFRDYVFRSMQEFYEDNVLYMEIRARLLPVYELSGEHHDEEWSVKTYQEVAQKFVETHPEFIGIKIIYSDHRSKDVAVIAESIRMAMGLRIKFPTVVAGFDLVGHEDTGHSLHDYKEALMIPAKDGVKLPYFFHAGETDWQGTSIDRNILDALMLNTTRIGHGFALSKHPAVRTYSWKKDIPIEVCPISNQVLKLVSDLRNHPVATLMATGHPMVISSDDPAMFGAKGLSYDFYEVFMGIGGMKADLRTLKQLAMNSIKYSTLLESEKNTFMEIWKKRWDKFIADVATK
light: EIVLTQSPATLSLSPGERATLSCRASKGVSTSGYSYLHWYQQKPGQAPRLLIYLASYLESGVPARFSGSGSGTDFTLTISSLEPEDFAVYYCQHSRDLPLTFGGGTKVEIK
notes: not shown: IgG1 heavy chain constant region; light chain constant region
B9: Anti-PD1 (VH7-VL6) scFv-ADA2 (scFv)
chain 1: QVQLVQSGVEVKKPGASVKVSCKASGYTFTNYYMYWVRQAPGQGLEWMGGINPSNGGTNFNEKFKNRVTLTTDSSTTTAYMELKSLQFDDTAVYYCARRDYRFDMGFDYWGQGTTVTVSS
chain 2: EIVLTQSPATLSLSPGERATLSCRASKGVSTSGYSYLHWYQQKPGQAPRLLIYLASYLESGVPARFSGSGSGTDFTLTISSLEPEDFAVYYCQHSRDLPLTFGGGTKVEIK
chain 3: GGGGSGGGGSSIDETRAHLLLKEKMMRLGGRLVLNTKEELANERLMTLKIAEMKEAMRTLIFPPSMHFFQAKHLIERSQVFNILRMMPKGAALHLHDIGIVTMDWLVRNVTYRPHCHICFTPRGIMQFRFAHPTPRPSEKCSKWILLEDYRKRVQNVTEFDDSLLRNFTLVTQHPEVIYTNQNVVWSKFETIFFTISGLIHYAPVFRDYVFRSMQEFYEDNVLYMEIRARLLPVYELSGEHHDEEWSVKTYQEVAQKFVETHPEFIGIKIIYSDHRSKDVAVIAESIRMAMGLRIKFPTVVAGFDLVGHEDTGHSLHDYKEALMIPAKDGVKLPYFFHAGETDWQGTSIDRNILDALMLNTTRIGHGFALSKHPAVRTYSWKKDIPIEVCPISNQVLKLVSDLRNHPVATLMATGHPMVISSDDPAMFGAKGLSYDFYEVFMGIGGMKADLRTLKQLAMNSIKYSTLLESEKNTFMEIWKKRWDKFIADVATK

The target of one test is T1, TGF-β1 (UniProt P01137 279-390). As to the kind of experiment: cell-based or functional assay.
T1 sequence (P01137 279-390 limits assumed): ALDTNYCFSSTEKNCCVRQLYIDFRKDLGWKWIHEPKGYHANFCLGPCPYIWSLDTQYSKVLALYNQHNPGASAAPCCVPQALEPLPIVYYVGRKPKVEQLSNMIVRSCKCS
Consider B1, for which the “IC50, inhibition of TGF-β1 induced reporter gene activity (HEK-Blue TGF-β cells, SEAP)” value amounted to 5.6 pM.
The same measure, in the same setting: the value for B2 was 9.3 pM.
In the case of B3, the “IC50, inhibition of TGF-β1 induced reporter gene activity (HEK-Blue TGF-β cells, SEAP)” value was found to be 9 pM.

The target in another test is T1, TGF-β1. As to the kind of experiment: cell-based or functional assay. The source holds these as a separate data set.
In the case of B4, the “IC50, TGF-β1 neutralization activity (HEK-Blue TGF-β reporter cells)” value is 1.2 pM.

In a further test the target is T2, PD-1 Fc fusion protein (UniProt Q15116 25-167, limits assumed).
T2 construct: Antigen immobilised on the CM5 chip in all PD-1 SPR assays; also called PD-1 fused to human Fc region; PD-1-Fc antigen; not shown: human Fc region
T2 sequence (Q15116 25-167 limits assumed): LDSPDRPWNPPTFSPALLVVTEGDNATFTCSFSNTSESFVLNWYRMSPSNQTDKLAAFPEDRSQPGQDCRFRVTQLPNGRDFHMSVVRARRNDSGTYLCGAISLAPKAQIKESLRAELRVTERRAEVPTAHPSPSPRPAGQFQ
Briefly: SPR (Biacore 3000), recombinant PD-1 Fc immobilised on CM5 chip, fusion protein injected. As for the experimental part:
Surface plasma resonance (SPR) analysis was performed using Biacore3000, CM5 chip, an amine-coupling kit, 10×HBS-P running buffer and Glycine for. […] Dissociation was allowed to proceed followed by regeneration of the chip surface.
Regarding B5, the Kd stood at 0.0663 pM.
As for B6, the Kd was determined as 3460 pM.
B7: the dissociation constant (Kd) was 0.0616 pM.
B8: the Kd was determined as 0.509 pM.
Consider B9, for which the Kd was found to be 130 pM.

These data come from patent US20240141045A1 (PRECIGEN, published 2024).
